# Values quoted from earlier work, collected in PMC11558822, “Myc 9aaTAD activation domain binds to mediator of transcription with superior high affinity” (Molecular Medicine, 2024).
# Molecular target: CBP KIX (Homo sapiens) (UniProt Q92793)
# Assay: ITC
# Chain of CBP KIX (Homo sapiens) (Q92793 584-669): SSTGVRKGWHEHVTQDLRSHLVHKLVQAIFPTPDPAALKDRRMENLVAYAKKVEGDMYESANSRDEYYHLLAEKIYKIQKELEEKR
substance,measurement,value
MLL 9aaTAD (from UniProt Q03164),Kd,1400 nM
